IntAct's records for PubMed 23202584

B1: Ubiquitin-like protein ATG12 (Homo sapiens), O94817 (parent)
chain: MAEEPQSVLQLPTSIAAGGEGLTDVSPETTTPEPPSSAAVSPGTEEPAGDTKKKIDILLKAVGDTPIMKTKKWAVERTRTIQGLIDFIKKFLKLVASEQLFIYVNQSFAPSPDQEVGTLYECFGSDGKLVLHYCKSQAWG

Variants of: B1
Conditions: with atg3_mouse Atg3, Q9CPX6
Chain of atg3_mouse Atg3, Q9CPX6 (Q9CPX6 whole entry): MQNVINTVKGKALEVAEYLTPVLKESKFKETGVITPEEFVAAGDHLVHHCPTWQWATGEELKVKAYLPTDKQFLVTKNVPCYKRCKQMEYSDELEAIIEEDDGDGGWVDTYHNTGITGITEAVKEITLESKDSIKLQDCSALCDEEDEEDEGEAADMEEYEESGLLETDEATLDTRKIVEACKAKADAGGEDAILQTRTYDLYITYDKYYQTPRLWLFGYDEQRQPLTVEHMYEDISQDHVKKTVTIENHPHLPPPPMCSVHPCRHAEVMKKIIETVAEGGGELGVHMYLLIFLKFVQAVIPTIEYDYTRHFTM

Effect of a mutation on the interaction, disrupting interaction strength:
K54D
K72D
W73A
